Measured values reported in patent US20080045450A1, “GLP-2 Derivatives” (priority 1996, published 2008).

Assay: Helix content by circular dichroism (CD) at 222 nm in aqueous solution
Type: physicochemical
Excerpt: The size of the partially helical, micelle-like aggregates may be estimated by size-exclusion chromatography. Similarly, the apparent (critical micelle concentrations) CMC's of the peptides may be estimated from the concentration dependent fluorescence in the presence of appropriate dyes (e.g. Brito, R. & Vaz, W. (1986) Anal. Biochem. 152, 250-255).
For the GLP-2 derivatives forming partially structured micellar-like aggregates in aqueous solution the helix content remains constant above 30% at concentrations of 10 μM. The aggregated structured conformation is an inherent property of the derivative present in water or dilute aqueous buffer without the need for any additional structure-inducing components. Note that the CD signal is proportional to the average content of α-helix in the peptides, i.e., a CD value of −1 corresponds to 10% α-helix content under these conditions.

native GLP-2: human glucagon-like peptide-2, a 33 amino acid residue peptide; parent peptide of the derivatives
helix content (at 500 μM concentration, in parallel with peptide self-association): 30-35%
helix content (starting value at low peptide concentration, before the increase seen with increasing concentration): 10-15%
